What is called EC50 (read off the curve) is the midpoint of the concentration-response curve. A low value points to a more potent agent.

This assay addresses human FcγRIIB-Ile232 on CHO-K1 cells (human) (UniProt P31994). In words: flow cytometry on CHO-huFcγRIIB cells, anti-human Fc F(ab')2. On the technique in general: Flow cytometry measures light scatter and fluorescence of single cells or particles in a stream.

Sequence of human FcγRIIB-Ile232 on CHO-K1 cells (human) (P31994 43-310): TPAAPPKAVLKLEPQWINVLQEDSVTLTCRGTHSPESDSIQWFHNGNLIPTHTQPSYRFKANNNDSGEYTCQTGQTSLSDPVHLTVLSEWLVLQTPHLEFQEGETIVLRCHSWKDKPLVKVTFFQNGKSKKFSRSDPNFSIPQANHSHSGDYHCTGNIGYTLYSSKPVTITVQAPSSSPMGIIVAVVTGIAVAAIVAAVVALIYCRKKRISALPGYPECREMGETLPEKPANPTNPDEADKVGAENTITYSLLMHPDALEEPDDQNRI

Avastin (antibody) yielded an EC50 (read off the curve) of 5 µg/mL.

(Values after patent US20210246218A1.)
